Source: PMC1885261, “Structure of the dimeric N-glycosylated form of fungal β-N-acetylhexosaminidase revealed by computer modeling, vibrational spectroscopy, and biochemical studies” (BMC Structural Biology, 2007)

Substrate: CC(=O)N[C@H]1[C@H](Oc2ccc([N+](=O)[O-])cc2)O[C@H](CO)[C@@H](O)[C@@H]1O
Experiment: 4-nitrophenyl substrate hydrolysis assay
Assay type: biochemical, Aspergillus oryzae
Conditions: substrate concentrations around Km

B1: β-N-acetylhexosaminidase (native form) (Aspergillus oryzae) (protein)
chain 1: VGVNPLPAPREISWGSSGPKSIAGELQLRTDSDSADGIVADAWNRAWETIVALRWVPAATEAPISSFEPFPTPTAGAS
chain 2: ASNSLQYVNVQVKDIEADLQHGVDESYTLDVEEDSDTITINAETVWGALHAFTTLQQLVISDGHGGLIIEEPVNIKDSPLYPYRGIMLDTGRNFVSLPKIFEQLEGMSLSKLNVLHWHIDDAQSWPIWVDVYPEMVKDAYSPHEIYSRNDVRNIVNYARARGIRVIPEIDMPSHSSSGWKQVDPEMVTCTDSWWSNDDWPLHTAVEPNPGQLDIIYNKTYEVVGNVYKELSDIFPDHWFHVGGDEIQPNCFNFSTHVTKWFAEDPSRTYHDLAQYWVDHAVPIFQNYSQERRLVMWEDIALSADNAHDVPKNIVMQSWNNGLEYISNLTARGYDVIVSSSDFLYLDCGHGGFVTNDPRYNVMANPDANTPNFNYGGNGGSWCAPYKTWQRIYDYDFTLNLTETQAKHIIGATAPLWGEQVDDINVSSMFWPRAAALAELVWSGNRDANGNKRTTEMTQRILNFREYLVANGVQAQALVPKYCLQHPHACDLYRNQAAIQ
notes: native enzyme purified from culture medium of A. oryzae; secreted, fully N-glycosylated (six sites), dimer; GH20
Km (native N-glycosylated form): 450 µM

B2: deglycosylated β-N-acetylhexosaminidase (Aspergillus oryzae) (protein)
chain 1: B1 chain 1
chain 2: B1 chain 2
notes: same polypeptide as P1, native purification, enzymatically N-deglycosylated under native conditions (endoglycosidase H, leaving core GlcNAc, or N-glycanase)
Km (deglycosylated form): 710 µM
